In data set [1] the target is T7 RNA polymerase mutant GP1(lys222) (Bacteriophage T7, UniProt P00573 SEQ:1-883, E222K). Nature of the data set: EMSA; +/-5e3; 20-fold below wild-type; more easily disrupted by lambda DNA; 25 C. Conditions: label: 32P. The protocol:
(§1) FIG. 8: Binding of a T7 Promoter by Wild-type T7 RNA Polymerase and GP1(lys222). […] Lane 1-no RNA polymerase, 5 µM promoter; Lane 2-26.5 nM GP1(lys222), 5 µM promoter; Lane 3-132.7 nM GP1(lys222), 5 µM promoter; Lane 4-26.5 nM GP1(lys222), 5 µM promoter, 3 µg lambda DNA; Lane 5-132.7 nM GP1(lys222), 5 µM promoter, 3 µg lambda DNA; Lane 6-12.9 nM T7 RNA polymerase, 5 µM promoter, Lane 7-64.7 nM T7 RNA polymerase, 5 µM promoter; Lane 8-12.9 nM T7 RNA polymerase, 5 µM promoter, 3 µg lambda DNA; Lane 9-64.7 nM T7 RNA polymerase, 5 µM promoter, 3 µg lambda DNA. Complex=Position of the enzyme/promoter complexes. Promoter=Position of the unbound promoter oligo.
(§2) 12. Estimation of Promoter Binding. The ability of T7 RNA polymerase and GP1(lys222) to bind a T7 promoter was determined by a gel-retardation method [Muller, D. K., et al., *Biochemistry*, 27: 5763-5771 (1988)]. […] The promoter/polymerase complexes were then cut out of the gel, and the amount of promoter contained in the complexes was measured by liquid scintillation.

The target of data set [2] is T7 RNA polymerase (wild-type) (Bacteriophage T7, UniProt P00573 SEQ:1-883). Briefly: EMSA; +/-2.2e5; 10 mM K phosphate pH 7.8, 1 mM EDTA, 20 mM NaCl, 25 C. Conditions: label: 32P. The procedure:
as §1, §2

B1: 24 bp T7 promoter oligonucleotide (dsDNA)
DNA 1: ATTAATACGACTCACTATAGGACT
DNA 2: AGTCCTATAGTGAGTCGTATTAAT
Take B1: the Ka in data set [1] amounted to 14000 M⁻¹; in data set [2] it was 280000 M⁻¹.

These data come from US5385834, “Mutant T7 RNA polymerase GP1(lys222) exhibiting altered promoter recognition” (Georgia Tech Research Corporation).
